Consider 1 substance from paper PMC12229972 (EJNMMI Radiopharmacy and Chemistry, 2025).

The nature of data set [1]: dynamic PET/CT imaging after cisterna magna infusion. The data set is classed as in vivo, Sprague–Dawley rats. As to conditions: rats.
The nature of data set [2]: dynamic PET/CT imaging after lumbar infusion. The note with it: rats. The data set is classed as in vivo, Sprague–Dawley rats.

Take “Al[^18F]F-7: aluminum [18F]fluoride restrained complexing agent (RESCA) conjugated rat serum albumin (RSA) reference tracer”: in data set [1] (geometric mean (CV), listed as 7), the “Cmax (maximum SUV), cervical and thoracic (T1-T2) vertebra (spinal canal)” value is recorded as 4.5(17%) SUV. Further, the “tmax, cisterna magna” value in data set [1] (median(range)) is 20(0) min. Moreover, the “Cmax, intracranial space (ICS)” value in data set [2] is on record as 0.27 %ID. Besides, in data set [2] (median(range)), the “tmax, lumbar vertebra L1-L2” value was 25(35) min.
